± gives the standard deviation of the averaged measurements.
Each sequence was assayed on Saccharomyces cerevisiae (assay: protein stability index of tFT-peptide fusion (C-terminal peptide) (PSI (0-1 scale)); higher = more stable (slower turnover)). Settings: genetic background: wild type; temperature: 30 C.
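Further: PSI is a weighted mean of sequencing reads over stability bins, variants kept only with over 10 reads, mCherry proximal and sfGFP distal, peptide attached via GGGS linker.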

Sequence | protein stability index
NRQNNYANDIQK | 0.713 ± 0.045
NRTPTPNQTPPT | 0.6798 ± 0.0048
NRYRKNIKKRKK | 0.617 ± 0.028
NSIHRTRPKKII | 0.641 ± 0.0048
NSRMSRYTTPYG | 0.68054 ± 0.00052
NTCGYGRAIKST | 0.687 ± 0.016
NTDPAKRNHPRK | 0.71379 ± 0.00067
NTDSIKKQKKKK | 0.675 ± 0.019
NTTCGVEQKEDK | 0.649 ± 0.014
NVALPLSLLFGL | 0.633 ± 0.087
NVGACRVMKTVY | 0.6876 ± 0.003
NVLNLTDTKETL | 0.652 ± 0.046
NYRGEKYDKREH | 0.569 ± 0.11
PAAPFFPSLRLL | 0.711 ± 0.03
PAASPVDEKVRL | 0.633 ± 0.016
PAEGVVGGKCYV | 0.685 ± 0.092
PAFCLTRAPSTQ | 0.72 ± 0.071
PAFPPPLPRRFL | 0.693 ± 0.23
PAHLFVPSSLFR | 0.702 ± 0.042
PALPNNVQCDCE | 0.705 ± 0.073
PALPPRLPPPPL | 0.602 ± 0.019
PALSVPPLLPPP | 0.604 ± 0.0071
PAPAPPSHFQER | 0.717 ± 0.043
PAPAVPPQTTPM | 0.6693 ± 0.001
PAPFPAPPTHGP | 0.7165 ± 0.0061
PAPHPPIPHQPP | 0.532 ± 0.023

Sequence | protein stability index
PAPHPRLTPIFL | 0.749 ± 0.11
PAPPALPFHCPR | 0.654 ± 0.075
PAPPLLPPPSPP | 0.63 ± 0.027
PAPPPHSAPPLP | 0.739 ± 0.024
PAPPPPPPALLP | 0.677 ± 0.067
PAPPPSPPPRLA | 0.67 ± 0.075
PAPTPAPNPNPH | 0.74 ± 0.11
PARGPTPHIVPR | 0.667 ± 0.053
PARSAGPLNARS | 0.758 ± 0.013
PASGHLPPPLSP | 0.641 ± 0.064
PASLPPRAPPPL | 0.664 ± 0.019
PASRIGGALPGG | 0.604 ± 0.03
PASYLSSPLRPP | 0.667 ± 0.046
PATKQFLLRGGR | 0.713 ± 0.0079
PAVLLGPCARVP | 0.699 ± 0.04
PAVPPGGDPTCP | 0.689 ± 0.0085
PCARLAGSPLPT | 0.688 ± 0.021
PCCYAGLHFFLG | 0.626 ± 0.068
PCLLANFFFFPA | 0.653 ± 0.09
PCLSLSFPPLPH | 0.736 ± 0.034
PCLSRPSTPPSS | 0.674 ± 0.036
PCPETPLLTRAA | 0.651 ± 0.0094
PCPFSSPPPLTH | 0.763 ± 0.053
PCSPRLPPFPSP | 0.683 ± 0.017
PCTRIPPLDSPL | 0.718 ± 0.058
PDPHTLTPTGHP | 0.71 ± 0.026

Sequence | protein stability index
PDSAGAALSLSS | 0.695 ± 0.027
PDSIVACGPVGR | 0.702 ± 0.043
PDTVRALMRGYK | 0.721 ± 0.016
PEGPGAGRGEHN | 0.686 ± 0.044
PEHGPWLFKGFF | 0.653 ± 0.025
PEILSLDPLPSL | 0.662 ± 0.018
PESGPVRLRTPP | 0.624 ± 0.029
PESPNCRRTRAL | 0.661 ± 0.031
PFAHPPRLPLFP | 0.742 ± 0.096
PFAHSATFLSLG | 0.774 ± 0.052
PFAPPPRPGPFP | 0.697 ± 0.085
PFARPPPSPSPR | 0.707 ± 0.012
PFCLPRPVRGVL | 0.728 ± 0.1
PFCTRRSVRYRS | 0.719 ± 0.049
PFCVALVDVGFW | 0.564 ± 0.029
PFFFLPPSRPRP | 0.671 ± 0.023
PFGPRLTQRSRP | 0.697 ± 0.039
PFHSPLMPAHSH | 0.764 ± 0.049
PFIPRFFSPCPL | 0.673 ± 0.018
PFLGHCPPTPPP | 0.732 ± 0.044
PFLLDSMRALGL | 0.737 ± 0.082
PFLLFVSSTCPL | 0.605 ± 0.024
PFPPHSPPSAPS | 0.697 ± 0.0093
PFPQVPFPRLAY | 0.681 ± 0.066
PFPSYLSPLGPS | 0.734 ± 0.037
PFRFSPFPLPLP | 0.695 ± 0.023

Sequence | protein stability index
PFSIVRRSSFAP | 0.659 ± 0.082
PFSTVDLATAYP | 0.712 ± 0.017
PFVFRPGPVPRV | 0.643 ± 0.1
PFWGKWVPSSYL | 0.7126 ± 0.0053
PFYLPPSTPPLL | 0.739 ± 0.0076
PGCLMGSRGFSN | 0.785 ± 0.18
PGDFSWAQCLFP | 0.752 ± 0.048
PGDSALVLVTPQ | 0.703 ± 0.069
PGFEPHLKLCAA | 0.654 ± 0.042
PGGRTVLCGTVT | 0.651 ± 0.0044
PGGSVYKPLATA | 0.644 ± 0.071
PGLAGGASQEGR | 0.58 ± 0.085
PGLLPTPSSPVP | 0.821 ± 0.032
PGLRRHPPPPPP | 0.739 ± 0.071
PGMTILETTIMD | 0.691 ± 0.015
PGPSVRSWHPMD | 0.69 ± 0.082
PGRGRQGSGIGM | 0.671 ± 0.062
PGRSRGGPPERR | 0.6386 ± 0.0035
PGTEVSDTLEVL | 0.6894 ± 0.0045
PGTRNATPRRQP | 0.707 ± 0.04
PGVIFRLPSCFV | 0.652 ± 0.061
PHAHTAPPPVPP | 0.601 ± 0.017
PHAPTAGPFPLP | 0.783 ± 0.021
PHILMSFGSPLS | 0.729 ± 0.018
PHLLRRPPTQRH | 0.633 ± 0.049
PHLSPPGLPTTP | 0.685 ± 0.055

Sequence | protein stability index
PHNSARSLPLHF | 0.717 ± 0.052
PHPCPTPPPLAP | 0.644 ± 0.043
PHPLPLPPPVAP | 0.711 ± 0.031
PHPNHRGPKGAN | 0.686 ± 0.032
PHPPCRPYPAGS | 0.701 ± 0.031
PHPPPLTQTPHD | 0.704 ± 0.014
PHPPPPPPALTP | 0.704 ± 0.037
PHPSPSSPPLLP | 0.657 ± 0.043
PHPVPPRLPFPS | 0.747 ± 0.038
PHQPRDGSFHGT | 0.653 ± 0.011
PHRLPPLPNPLH | 0.693 ± 0.082
PHRSLHTPTLCS | 0.686 ± 0.16
PHSLLPSSAPRN | 0.696 ± 0.024
PHTHHLPPPNCP | 0.679 ± 0.04
PHYLPHAPHGAL | 0.704 ± 0.037
PIGAFLSFWGQW | 0.828 ± 0.087
PIPPESLHPDHN | 0.83 ± 0.038
PISCVLGFAFPS | 0.708 ± 0.1
PISKLCLTSYEY | 0.697 ± 0.021
PITLRRRSRPPT | 0.692 ± 0.052
PKEQTHKKQHNI | 0.56 ± 0.039
PKNPRSTNGQLS | 0.67 ± 0.055
PKPDFPGRHLSR | 0.654 ± 0.093
PKSFLRRLRGWA | 0.701 ± 0.07
PLAHYRPLPPRL | 0.787 ± 0.063
PLAMRVALFSPP | 0.651 ± 0.0089

Sequence | protein stability index
PLAPSPPLPAFC | 0.693 ± 0.02
PLAPSTPPNLSN | 0.643 ± 0.073
PLASPYRLCPVP | 0.624 ± 0.044
PLCPPPLPTPPP | 0.5849 ± 0.0028
PLCPPPPVASFV | 0.64 ± 0.013
PLDLPPLPLPPP | 0.763 ± 0.15
PLFRHAPPSTLH | 0.739 ± 0.014
PLFSLRPSIPFS | 0.72 ± 0.033
PLGCFQQDVYEK | 0.733 ± 0.089
PLHLPPFRPSPR | 0.676 ± 0.12
PLHPPLSGPLPP | 0.723 ± 0.021
PLHPPSLPPSRS | 0.65 ± 0.059
PLLAPVPLTLTP | 0.722 ± 0.022
PLLGPFTPSSLL | 0.737 ± 0.0088
PLLHSARSSPFR | 0.699 ± 0.049
PLLLLFLSLFRR | 0.63 ± 0.023
PLLPLRSPPPLV | 0.637 ± 0.046
PLLPPLPVSPLP | 0.704 ± 0.038
PLLPRLNIPREF | 0.658 ± 0.056
PLLSCLFLLFFL | 0.526 ± 0.0065
PLLSLGCFPFCL | 0.724 ± 0.082
PLLVLPGPLLTP | 0.668 ± 0.097
PLPFSPPFPPSS | 0.732 ± 0.055
PLPFWPPPPRRP | 0.674 ± 0.066
PLPIGLRHVKSE | 0.696 ± 0.018
PLPIPPRRPNSP | 0.65 ± 0.091

Sequence | protein stability index
PLPLLPTNPSPP | 0.636 ± 0.0096
PLPLPAPPPPSP | 0.663 ± 0.01
PLPPFPPSPPFT | 0.684 ± 0.036
PLPPLPPPPPPP | 0.639 ± 0.051
PLPPPAIPRLCA | 0.636 ± 0.029
PLPPPLLPRTRL | 0.694 ± 0.11
PLPPPPLAPPPP | 0.687 ± 0.014
PLPPPPPARLVP | 0.649 ± 0.048
PLPPPPPPPHSP | 0.738 ± 0.05
PLPPPPPPPPRL | 0.678 ± 0.0073
PLPPPPPPPRSP | 0.718 ± 0.077
PLPPPPPPPSTP | 0.784 ± 0.0098
PLPPPPRLRCSS | 0.649 ± 0.069
PLPPPPTPPSLS | 0.716 ± 0.046
PLPPPRFPPPRL | 0.68 ± 0.12
PLPPPRPPPSPP | 0.603 ± 0.071
PLPPPRSSPVSS | 0.658 ± 0.04
PLPPRLPPPPPS | 0.72 ± 0.048
PLPPSRLSPSPP | 0.7 ± 0.0036
PLPPTPSLDPSS | 0.6992 ± 0.0033
PLPPVVSFALSR | 0.661 ± 0.061
PLPRPPPPANSP | 0.714 ± 0.063
PLPRSPLHPSVP | 0.74 ± 0.03
PLPSLPPSLAPW | 0.692 ± 0.078
PLPSPASPSPPP | 0.67 ± 0.12
PLPSPLLPRSVL | 0.705 ± 0.045

Sequence | protein stability index
PLPSPSLLLHCP | 0.592 ± 0.0013
PLPTPHPHKPYQ | 0.771 ± 0.025
PLPVRPGQHRIL | 0.6918 ± 0.0024
PLRKGVHTHNNK | 0.632 ± 0.053
PLRLLSTPSPLS | 0.755 ± 0.049
PLRLPVPLPSPP | 0.6571 ± 0.0062
PLRPGILLNKLP | 0.646 ± 0.046
PLRPPPPPLAPP | 0.697 ± 0.035
PLRPPPRPRQTH | 0.671 ± 0.056
PLRPPPSPLSPR | 0.76 ± 0.055
PLRPSVSALPPF | 0.683 ± 0.018
PLRQRCIYDVPI | 0.7688 ± 0.0039
PLRSLRFYTTLS | 0.649 ± 0.018
PLRVATTLGYPL | 0.649 ± 0.081
PLRVDLTHQQWS | 0.574 ± 0.11
PLRYPQLTLPPP | 0.6381 ± 0.0037
PLSDRGGRFPML | 0.7 ± 0.053
PLSLIAFAISPC | 0.637 ± 0.015
PLSPFLPPPVPL | 0.703 ± 0.13
PLSPFLRFLSSP | 0.605 ± 0.072
